Laboratory results: US20190194334A1

Target: cell surface (plasma membrane) nucleolin of human tumor cells (human) (UniProt P19338)
Test: flow cytometry of non-permeabilized MCF-7 cells, dot plot of side scatter against FITC fluorescence [B]

Sequence of UniProt P19338 (P19338 2-710 limits assumed): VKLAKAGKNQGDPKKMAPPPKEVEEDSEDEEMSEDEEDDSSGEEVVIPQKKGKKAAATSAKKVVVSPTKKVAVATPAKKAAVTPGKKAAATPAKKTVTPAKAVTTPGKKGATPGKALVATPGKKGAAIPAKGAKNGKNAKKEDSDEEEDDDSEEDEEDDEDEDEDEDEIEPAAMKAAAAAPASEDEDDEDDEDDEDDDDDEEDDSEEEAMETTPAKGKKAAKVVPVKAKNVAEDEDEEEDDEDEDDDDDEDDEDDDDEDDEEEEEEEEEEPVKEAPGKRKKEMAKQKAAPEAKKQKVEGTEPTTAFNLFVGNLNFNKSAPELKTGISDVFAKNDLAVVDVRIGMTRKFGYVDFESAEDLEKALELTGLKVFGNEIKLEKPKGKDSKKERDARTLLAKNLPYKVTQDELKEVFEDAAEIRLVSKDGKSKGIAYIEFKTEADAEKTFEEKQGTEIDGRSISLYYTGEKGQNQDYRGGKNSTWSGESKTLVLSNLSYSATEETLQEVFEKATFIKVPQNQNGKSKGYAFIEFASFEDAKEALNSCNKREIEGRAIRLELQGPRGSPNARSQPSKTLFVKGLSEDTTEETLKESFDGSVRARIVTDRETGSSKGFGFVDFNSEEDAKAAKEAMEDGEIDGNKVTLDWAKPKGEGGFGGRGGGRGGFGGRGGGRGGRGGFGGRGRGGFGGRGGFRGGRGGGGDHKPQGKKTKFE

percent of cells in the FITC-positive gate: 1.5%
Substance: Control IgG-FITC (antibody)
